Source: publication PMC6412877, “Novel Site-Specific Fatty Chain-Modified GLP-1 Receptor Agonist with Potent Antidiabetic Effects” (Molecules, 2019)

Assays:
Mouse GLP-1R (mouse) = Mouse GLP-1R (mouse) (UniProt O35659)
Human GLP-1R (human) = Human GLP-1R (human) (UniProt P43220)
Sequence of Human GLP-1R (human) (P43220 24-463): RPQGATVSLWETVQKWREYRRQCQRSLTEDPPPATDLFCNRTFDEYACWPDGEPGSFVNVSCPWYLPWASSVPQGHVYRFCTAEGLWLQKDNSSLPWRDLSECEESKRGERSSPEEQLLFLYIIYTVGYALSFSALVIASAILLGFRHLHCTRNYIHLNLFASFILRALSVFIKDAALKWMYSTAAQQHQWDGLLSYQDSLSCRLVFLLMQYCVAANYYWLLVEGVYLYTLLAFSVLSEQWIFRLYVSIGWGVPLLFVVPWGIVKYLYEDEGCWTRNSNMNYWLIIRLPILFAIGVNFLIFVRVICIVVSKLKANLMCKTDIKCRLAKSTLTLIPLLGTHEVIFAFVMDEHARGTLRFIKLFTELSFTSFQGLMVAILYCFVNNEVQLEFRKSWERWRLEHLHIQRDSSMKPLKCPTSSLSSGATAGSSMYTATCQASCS

Sequence of Mouse GLP-1R (mouse) (O35659 22-463): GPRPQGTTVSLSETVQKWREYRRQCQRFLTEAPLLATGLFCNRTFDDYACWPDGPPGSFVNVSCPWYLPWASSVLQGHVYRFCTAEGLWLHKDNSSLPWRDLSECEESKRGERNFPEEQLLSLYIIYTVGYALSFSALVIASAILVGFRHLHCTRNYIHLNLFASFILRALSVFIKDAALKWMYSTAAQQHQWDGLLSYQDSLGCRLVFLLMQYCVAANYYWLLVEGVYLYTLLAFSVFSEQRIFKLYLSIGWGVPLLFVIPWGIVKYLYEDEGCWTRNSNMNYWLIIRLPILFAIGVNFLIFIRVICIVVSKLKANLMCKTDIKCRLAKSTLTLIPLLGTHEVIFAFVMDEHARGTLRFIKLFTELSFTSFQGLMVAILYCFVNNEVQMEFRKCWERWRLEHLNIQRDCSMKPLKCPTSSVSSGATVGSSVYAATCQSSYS

Work on Liraglutide (peptide) yielded an EC50 (nM), Mouse GLP-1R activation, in vitro cell assay (Mouse GLP-1R (mouse)) of 0.185 nM and an Emax (%), Mouse GLP-1R activation, in vitro cell assay (Mouse GLP-1R (mouse)) of 89%.
Substance “Exendin-4 (from UniProt P26349 48-87) (peptide)” has an Emax (%), Mouse GLP-1R activation, in vitro cell assay (Mouse GLP-1R (mouse)) of 100% and an EC50 (nM), Human GLP-1R activation, in vitro cell assay (Human GLP-1R (human)) of 0.052 nM.
